Laboratory results taken from patent US20230056404A1 (priority 2019, published 2023).

Assays:
DRD1 = target: T1, DRD1 (Homo sapiens, UniProt P21728); experiment: DRD1-Strep functional activity, cAMP-Glo assay; type: cell-based; conditions: HEK293 expressing DRD1-Strep
T1 construct: expressed in transfected cells; host or cells: HEK293
Description: In addition to the illustration of a correctly translocated GPCR such as DRD1, activity tests were performed using a DRD1-Strep fusion. The smaller strep-tag ensures that the interaction with the cytosolic located G-protein is intact, and a functional assay can be performed. Upon binding of dopamine, DRD1 releases the heterotrimeric G-protein to its Gα subunit and its Gβγ complex. In the resting state, Ga binds GDP but upon activation exchanges GTP for GDP. The Gα-GTP complex interacts with adenylate cyclase (AC), resulting in activation of AC activity and consequently, increasing cAMP levels. Changes in intracellular cAMP levels can be measured by standard cAMP assays. The academic and industry standard (EG5) was compared to the same target protein in co-expression with the L-protein of ECMV.
DRD1-Strep fusions were expressed in HEK293 cells. […] Protein was expressed for 48 h and DRD1 activity was analyzed using the cAMP-Glo™ assay (Promega) according to manufacturer's instructions. After 48 h, cells were washed with sterile PBS pH 7.2 and cells were incubated for 2 h with 20 μl of a 1 mM dopamine substrate solution (+dopamine; ON) or PBS pH 7.2 (−dopamine; OFF) at 37° C. […] Luminescence was measured using a plate reader (BioTek Synergy™ LX) and data were analyzed using standard analysis programs.

HEK293 cells [1] = type: cell-based, human
Sf9 cells = experiment: DRD1-GFP expression, localization and toxicity in Sf9 cells; conditions: Sf9, 72 h
Description: DRD1-GFP fusions were expressed in Sf9 cells. Sf9 cells were seeded at 0.4×10^6 cells/well in a 6 well plate and incubated for 15 min at RT before transiently transfecting with either EG10 or EG8 using Cellfectin Reagent II (Thermofisher) according to manufactures instruction. DRD1-GFP expression was monitored after 72 h using fluorescence microscopy. Images were taken and analyzed by an Echo Revolve microscopy system.

[2] = Active C1-Inhibitor, MicroVue C1-Inhibitor Plus EIA; type: biochemical; conditions: presence vs absence of the enhancer protein, protein concentration normalized
Description: (§1) C1-Inh-Myc-Flag fusions were expressed in HEK293 cells. HEK293 cells were seeded at 1.75×10^6/ml cells in 100 ml shaking flask and incubated at 37° C., 5% CO2 and 120 rpm overnight before transiently transfecting with a vector encoding C1-Inh (OriGene; CAT #: RC203767) either alone, or in combination with EG11 by transfection of suspension cells using methods known in the art and/or disclosed herein. Supernatant containing the expressed recombinant C1-Inh protein was harvested after 72 h and supernatant was cleared by centrifugation followed by filtration ([…], nitrocellulose). To purify C1-Inh, Anti-Flag resin (ANTI-FLAG M2 Affinity Gel, Millipore Sigma) was equilibrated with 20 mM Tris pH 7.5, 50 mM NaCl prior to adding to the supernatant. Supernatant was incubated with the resin for 2 h at 4° C. with shaking. Resin was settled and washed with 5 CV 20 mM Tris pH 7.5, 50 mM NaCl and protein was eluted with 4 CV 20 mM Tris pH 7.5, 50 mM NaCl, 0.2 mg/ml 3× Flag Peptide. Purification was analyzed by SDS-PAGE (SurePAGE, Bis-Tris, GenScript) and protein containing fractions were pooled. Protein concentration was analyzed by BCA Assay (ThermoFisher) according to manufactures instructions and normalized C1-Inh was tested for activity using Immunoassay (MicroVue C1-Inhibitor Plus EIA, Quidel) following manufactures instructions.

HEK293 cells [3] = experiment: C1-Inhibitor secretion and purification, total amount produced; type: cell-based, human; conditions: presence vs absence of the enhancer protein (L protein from EMCV, EG11), HEK293, 72 h
Description: as §1

CHO-K1 cells = experiment: DRD1-GFP expression and membrane localization in CHO-K1 cells; conditions: CHO-K1, 48 h
Description: DRD1-GFP fusions proteins were expressed in CHO-K1 cells. CHO-K1 cells were seeded at 0.05×10^6 cells/well in a 24 well plate and incubated at 37° C. and 5% CO2 overnight before transiently transfecting with either EG10 or EG19 using Lipofectamine 3000 (Thermofisher) according to manufactures instructions. DRD1-GFP expression was monitored after 48 h using fluorescence microscopy. Images were taken and analyzed by an Echo Revolve microscopy system.

T1 sequence (P21728 with tags, fused parts or gaps): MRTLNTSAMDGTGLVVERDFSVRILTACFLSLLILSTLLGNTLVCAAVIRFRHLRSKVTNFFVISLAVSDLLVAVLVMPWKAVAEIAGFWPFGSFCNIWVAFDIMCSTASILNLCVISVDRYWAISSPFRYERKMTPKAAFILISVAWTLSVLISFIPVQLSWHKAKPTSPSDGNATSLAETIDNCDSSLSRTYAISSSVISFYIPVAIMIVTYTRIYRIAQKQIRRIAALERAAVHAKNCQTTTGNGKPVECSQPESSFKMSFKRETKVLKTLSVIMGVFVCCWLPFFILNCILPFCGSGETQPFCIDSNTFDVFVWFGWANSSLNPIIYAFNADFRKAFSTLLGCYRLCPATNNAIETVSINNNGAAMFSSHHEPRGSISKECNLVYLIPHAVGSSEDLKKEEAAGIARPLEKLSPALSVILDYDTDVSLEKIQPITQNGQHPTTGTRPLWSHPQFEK

Molecule | activating signal, difference between OFF (-dopamine) and ON (+dopamine) luminescence (DRD1; 1 mM dopamine 2 h) | leaky activation, OFF signal compared to non-transfected cells (DRD1; absence of dopamine) | DRD1-GFP membrane association, enhancer on a separate vector (HEK293 cells [1]) | DRD1-GFP translocation into the outer membrane / inclusion bodies (HEK293 cells [1]) | DRD1-GFP translocation and localization (Sf9 cells) | increase of amount of active C1-Inhibitor [2] | increase of total amount of produced C1-Inhibitor (HEK293 cells [3]) | DRD1-GFP translocation and localization (CHO-K1 cells)
Leader protein of ECMV: Leader protein of Encephalomyocarditis virus (EMCV), SEQ ID NO: 2, enhancer protein | strong activating signal | greatly reduced | ensures correct membrane association | sufficient to ensure a correct membrane incorporation of DRD1-GFP | improved expression and localization of the membrane protein | – | – | –
C1-Inhibitor: secreted protease inhibitor of the serpin superfamily, expressed as C1-Inh-myc-flag fusion (protein, UniProt P05155 23-500, looked up, myc-flag tag) Plasma protease C1 inhibitor: NPNATSSSSQDPESLQDRGEGKVATTVISKMLFVEPILEVSSLPTTNSTTNSATKITANTTDEPTTQPTTEPTTQPTIQPTQPTTQLPTDSPTQPTTGSFCPGPVTLCSDLESHSTEAVLGDALVDFSLKLYHAFSAMKKVETNMAFSPFSIASLLTQVLLGAGENTKTNLESILSYPKDFTCVHQALKGFTTKGVTSVSQIFHSPDLAIRDTFVNASRTLYSSSPRVLSNNSDANLELINTWVAKNTNNKISRLLDSLPSDTRLVLLNAIYLSAKWKTTFDPKKTRMEPFHFKNSVIKVPMMNSKKYPVAHFIDQTLKAKVGQLQLSHNLSLVILVPQNLKHRLEDMEQALSPSVFKAIMEKLEMSKFQPTLLTLPRIKVTTSQDMLSIMEKLEFFDFSYDLNLCGLTEDPDLQVSAMQHQTVLELTETGVEAAAASAISVARTLLVFEVQQPFLFVLWDQQHKFPVFMGRVYDPRA | – | – | – | – | – | > 10% | > 30% | –
Leader protein of Theiler's virus: Leader protein of Theiler's virus, SEQ ID NO: 1, enhancer protein (protein, Cardiovirus Theiler's-like cardiovirus) MACKHGYPLMCPLCTALDKTSDGLFTLLFDNEWYPTDLLTVDLEDEVFYPDDPHMEWTDLPLIQDIEMEPQ | – | – | – | sufficient to ensure a correct membrane incorporation of DRD1-GFP | – | – | – | improved expression and localization of the membrane protein
